The text below walks through data of PMC2993637.

The target of experiment [1] is MLL transactivation domain (Homo sapiens) (UniProt Q03164). Particulars: cited from earlier work.
In experiment [2] the target is KIX domain (residues 586-672) of mouse CBP, wild type (mouse) (UniProt P45481). The experiment is described as follows: ITC. In general terms: ITC needs no label: the signal is the heat of the interaction.
The target is the same in experiment [3]. The experiment can be described thus: NMR titration.
Experiment [4] addresses KIX domain (residues 586-672) of mouse CBP, L628A (mouse) (UniProt P45481). The experiment can be described thus: NMR titration.

For CBP KIX (from UniProt P45481), in experiment [1], the Kd – broadly, the concentration at which binding is half-saturated – is 2800 nM.

On to “Human MLL transactivation domain (2842-2469 as printed) (domain or fragment)”, for which the Kd in experiment [2] turned out to be 2100 nM. In experiment [3], this substance had a Kd2 (secondary site, two-site model) of 920 µM and a percent of KIX in the MLL-bound form (1:1 KIX:MLL) of 94%. In experiment [4], the Kd1 (primary site, two-site model) is 220 µM; the Kd2 (secondary site, two-site model) came out at 1.63 mM; the percent of KIX in the MLL-bound form (1:2 KIX:MLL) is 74%.
